Test results reported in the Human Domainome abundance scans (Beltran et al. 2025).
± gives the uncertainty stated by the source.

B1: Retinoic acid receptor RXR-alpha, residues 132 to 208; numbered along this chain, P19793 (parent)
chain: KHICAICGDRSSGKHYGVYSCEGCKGFFKRTVRKDLTYTCRDNKDCLIDKRQRNRCQYCRYQKCLAMGMKREAVQEE

Variants of: B1
Assay: abundance fitness (aPCA) (normalised: wild type 0, dead -1); higher = more abundant; growth selection in yeast, the domain comes from the species named
Conditions: Homo sapiens

Variant	abundance fitness
KHICAICGDRSSGKHYGVYSCEGGKGFFKRTVRKDLTYTCRDNKDCLIDKRQRNRCQYCRYQKCLAMGMKREAVQEE	-0.945 ± 0.046
KHICAICGDRSSGKHYGVYSCEGCKGFFKRTVRKDLTYTCRDNKDCLIDKRQRNRCQYCRYQKCLAMGMKREAVQYE	-0.011 ± 0.035
KHICAICGDRSSGKHYGVYSCEGCKGFFTRTVRKDLTYTCRDNKDCLIDKRQRNRCQYCRYQKCLAMGMKREAVQEE	0.021 ± 0.04
KHICAICGDRSSGKHYGVYSCEGCKGFFKRTVRKDLTYTCRDWKDCLIDKRQRNRCQYCRYQKCLAMGMKREAVQEE	-0.008 ± 0.042
KHICAICGDRSSGKHYGVYSCEGCKGFFKRTVRKDLTYTCRDTKDCLIDKRQRNRCQYCRYQKCLAMGMKREAVQEE	0.049 ± 0.046
KHICAICGDRSSGKHYGVYSCEGCKGFFKRTVRKDLTYTCRDRKDCLIDKRQRNRCQYCRYQKCLAMGMKREAVQEE	-0.003 ± 0.03
KHICAICGDRSSGKHYGVYSCEGCKGFFKRTVRKDLTYTCRDNKDCLIDMRQRNRCQYCRYQKCLAMGMKREAVQEE	0.043 ± 0.065
KHICAICGDRSSGKHYGVYSCEGCKGFFKRTVRKDLTYTCRDNKDCLIDKRQRNRCQYCRYQKCLAMGMKREAVCEE	0.026 ± 0.041
KHICAICGDRSSGKHYGVYSCEGCKGFFKLTVRKDLTYTCRDNKDCLIDKRQRNRCQYCRYQKCLAMGMKREAVQEE	-0.178 ± 0.04
KHICAICGWRSSGKHYGVYSCEGCKGFFKRTVRKDLTYTCRDNKDCLIDKRQRNRCQYCRYQKCLAMGMKREAVQEE	-0.141 ± 0.054
KHICAICGDRSSGKHYGYYSCEGCKGFFKRTVRKDLTYTCRDNKDCLIDKRQRNRCQYCRYQKCLAMGMKREAVQEE	-0.262 ± 0.038
KHICAICGDESSGKHYGVYSCEGCKGFFKRTVRKDLTYTCRDNKDCLIDKRQRNRCQYCRYQKCLAMGMKREAVQEE	-0.059 ± 0.034
KHICAICGDRSSGKHYGVYSCEGCKGFFKRTVRKDLTYTCRDNKDCLIDKRQRNRYQYCRYQKCLAMGMKREAVQEE	-0.431 ± 0.19
KHICAICGDRSSNKHYGVYSCEGCKGFFKRTVRKDLTYTCRDNKDCLIDKRQRNRCQYCRYQKCLAMGMKREAVQEE	0.048 ± 0.084
KHICAICGDRSSEKHYGVYSCEGCKGFFKRTVRKDLTYTCRDNKDCLIDKRQRNRCQYCRYQKCLAMGMKREAVQEE	0.059 ± 0.044
KHICAICGDRSSDKHYGVYSCEGCKGFFKRTVRKDLTYTCRDNKDCLIDKRQRNRCQYCRYQKCLAMGMKREAVQEE	0.019 ± 0.048
KHICAICGDRSSGKHYGVYSCEGCKGFFKRTVRKDLTYTCRDNKDCLIDKRQGNRCQYCRYQKCLAMGMKREAVQEE	-0.009 ± 0.032
KHICAICGDRSSGKHYGVYSCEGCKGFFKRTVRKDLTYTCRDNKDCLIDKRQCNRCQYCRYQKCLAMGMKREAVQEE	-0.063 ± 0.04

Variant	abundance fitness
KHICAICGDRSSGKHYGVYSCEGCKGFFKRTVRKDLTYTCRDNKDCLIDKRQENRCQYCRYQKCLAMGMKREAVQEE	0.061 ± 0.047
KHICAICGDRSSGTHYGVYSCEGCKGFFKRTVRKDLTYTCRDNKDCLIDKRQRNRCQYCRYQKCLAMGMKREAVQEE	-0.039 ± 0.045
KHICAICGDRSSGEHYGVYSCEGCKGFFKRTVRKDLTYTCRDNKDCLIDKRQRNRCQYCRYQKCLAMGMKREAVQEE	-0.034 ± 0.035
KHICAICGDRSSGKHYGVYSCEGCKGFFKRTVNKDLTYTCRDNKDCLIDKRQRNRCQYCRYQKCLAMGMKREAVQEE	-0.017 ± 0.035
KHICAICGDRSSGKHYGVYSCEGCKGFFKRTVGKDLTYTCRDNKDCLIDKRQRNRCQYCRYQKCLAMGMKREAVQEE	-0.014 ± 0.031
KHICAICGDRSSGKHYGVYSCEGCKGFFKRTVRKDLTYTCRDNKDCLIDKRQRNRCQYCRYQKCLAMKMKREAVQEE	-0.079 ± 0.056
KHICAICGDRSSGKHYGVYSCEGCKGFFKRTVRKDLTYTCRDNKDCLIDKRQRNRCQYCRYQKCLAMSMKREAVQEE	-0.108 ± 0.029
KHICAICGDRSSGKHYGVYSCEGCKGFFKRRVRKDLTYTCRDNKDCLIDKRQRNRCQYCRYQKCLAMGMKREAVQEE	-0.504 ± 0.033
KHICAICGDRSSGKHYGVYSCEGCKGFFKRAVRKDLTYTCRDNKDCLIDKRQRNRCQYCRYQKCLAMGMKREAVQEE	-0.03 ± 0.026
KHICAICGDRSSGKHYGVYSCEGCKGFFKRTVRKDLTWTCRDNKDCLIDKRQRNRCQYCRYQKCLAMGMKREAVQEE	-0.086 ± 0.036
KHICAICGDRSSGKFYGVYSCEGCKGFFKRTVRKDLTYTCRDNKDCLIDKRQRNRCQYCRYQKCLAMGMKREAVQEE	-0.064 ± 0.037
KHICAICGDRSSGKHYGVYSCIGCKGFFKRTVRKDLTYTCRDNKDCLIDKRQRNRCQYCRYQKCLAMGMKREAVQEE	-0.011 ± 0.051
KHICAICGDRSSGKHYGVYSCEGCKGFFKRTVRKDLTYTCFDNKDCLIDKRQRNRCQYCRYQKCLAMGMKREAVQEE	0.032 ± 0.031
KHICAICGDRSSGKHYGVYSCEGCKGFFKRTVRKDLTYTCVDNKDCLIDKRQRNRCQYCRYQKCLAMGMKREAVQEE	-0.01 ± 0.031
KHICAICGDRSSGKHYGVYSCEGCKGFFKRTVRKDLTYTCRDNKDCLIDKRQRNRCQYCRYQKCLAMGMKTEAVQEE	0.019 ± 0.029
KHICAICGDRSSGKHYGVYSCEGCKGFFKRTVRKDLTYTCRDNKDCLIDKRQRNRCQYCRYQKCLAMGMKFEAVQEE	0.01 ± 0.032
KHICAICGDRSSGKHYGVYSCEGCKGFFKRTVRKDLTYTCRDNKDCLIDKRQRNRCQYCRYQKCLAMGMKPEAVQEE	0.005 ± 0.031
